Data reported in article PMC10866537 (2024).

Molecular target: T1, mouse 4-1BB–Fc protein (mouse, UniProt P20334 24-187)
T1 chain: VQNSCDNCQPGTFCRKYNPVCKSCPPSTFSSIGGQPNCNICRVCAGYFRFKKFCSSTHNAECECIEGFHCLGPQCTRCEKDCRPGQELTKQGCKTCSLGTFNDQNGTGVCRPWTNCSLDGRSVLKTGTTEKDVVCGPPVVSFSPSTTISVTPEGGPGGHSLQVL
Assay: SPR

koff: 0.011 s⁻¹
B1: mouse siglec-4–HIS protein (domain or fragment)
chain: GHWGAWMPSTISAFEGTCVSIPCRFDFPDELRPAVVHGVWYFNSPYPKNYPPVVFKSRTQVVHESFQGRSRLLGDLGLRNCTLLLSTLSPELGGKYYFRGDLGGYNQYTFSEHSVLDIVNTPNIVVPPEVVAGTEVEVSCMVPDNCPELRPELSWLGHEGLGEPTVLGRLREDEGTWVQVSLLHFVPTREANGHRLGCQAAFPNTTLQFEGYASLDVKYPPVIVEMNSSVEAIEGSHVSLLCGADSNPPPLLTWMRDGMVLREAVAKSLYLDLEEVTPGEDGVYACLAENAYGQDNRTVELSVMYAPWKPTVNGTVVAVEGETVSILCSTQSNPDPILTIFKEKQILATVIYESQLQLELPAVTPEDDGEYWCVAENQYGQRATAFNLSVEFAPIILLESHCAAARDTVQCLCVVKSNPEPSVAFELPSRNVTVNETEREFVYSERSGLLLTSILTIRGQAQAPPRVICTSRNLYGTQSLELPFQGAHRLMWAKIGP
